Sequences and labels used below:
B1: CCDC89 (parent)
chain: LNAELEEKMMQEAEKLKAQGEYSR
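Also: lentivirally expressed fusions sorted by FACS into six bins by GFP to DsRed ratio, PSI derived from sequencing read proportions per bin multiplied by bin number.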

Variants of B1 are the subject of the data set. In words: protein stability index of a GFP-peptide fusion (GPS, HEK-293T) (PSI 1-6); higher = more stable. Conditions: c terminus: a fixed tail appended.
With LNAELEEKMMQEAEKLKAWGEYSR [Q19W], the protein stability index is 4.62.

Consider LNAELEEKMMQEAEKLKAVGEYSR [Q19V], for which the protein stability index is 5.57.

As for LNAELEEKMMQEAEKLKAGGEYSR [Q19G], the protein stability index was 4.95.

On to LNAELEEKMMQEAEKLKASGEYSR [Q19S], for which the protein stability index stood at 5.19.

Regarding LNAELEEKMMQEAEKLKAAGEYSR [Q19A], the protein stability index amounted to 5.24.

Regarding LNAELEEKMMQEAEKLKAYGEYSR [Q19Y], the protein stability index was 2.53.

As for LNAELEEKMMQEAEKLKAHGEYSR [Q19H], the protein stability index was 4.74.

Turning to LNAELEEKMMQEAEKLKAKGEYSR [Q19K], the protein stability index stood at 5.3.

For LNAELEEKMMQEAEKLKAPGEYSR [Q19P], the protein stability index turned out to be 5.12.

As for LNAELEEKMMQEAEKLKACGEYSR [Q19C], the protein stability index was 4.66.

LNAELEEKMMQEAEKLKALGEYSR [Q19L]: the protein stability index stood at 2.99.

Take LNAELEEKMMQEAEKLKAMGEYSR [Q19M]: the protein stability index turned out to be 4.13.

Turning to LNAELEEKMMQEAEKLKATGEYSR [Q19T], the protein stability index turned out to be 5.18.

For LNAELEEKMMQEAEKLKAFGEYSR [Q19F], the protein stability index is 3.64.

Turning to LNAELEEKMMQEAEKLKADGEYSR [Q19D], the protein stability index came out at 5.85.

As for LNAELEEKMMQEAEKLKAEGEYSR [Q19E], the protein stability index came out at 5.84.

Regarding LNAELEEKMMQEAEKLKAIGEYSR [Q19I], the protein stability index was determined as 3.83.

In the case of LNAELEEKMMQEAEKLKANGEYSR [Q19N], the protein stability index came to 4.82.

For LNAELEEKMMQEAEKLKLQGEYSR [A18L], the protein stability index is 3.87.

For the variant LNAELEEKMMQEAEKLKTQGEYSR [A18T], the protein stability index stood at 5.07.

As for LNAELEEKMMQEAEKLKPQGEYSR [A18P], the protein stability index was determined as 4.7.

For LNAELEEKMMQEAEKLKDQGEYSR [A18D], the protein stability index stood at 4.95.

Regarding LNAELEEKMMQEAEKLKRQGEYSR [A18R], the protein stability index came to 4.31.

For the variant LNAELEEKMMQEAEKLKFQGEYSR [A18F], the protein stability index came out at 4.28.

For the variant LNAELEEKMMQEAEKLKNQGEYSR [A18N], the protein stability index amounted to 5.09.

In the case of LNAELEEKMMQEAEKLKGQGEYSR [A18G], the protein stability index stood at 4.43.

For LNAELEEKMMQEAEKLKCQGEYSR [A18C], the protein stability index came to 4.79.

As for LNAELEEKMMQEAEKLKHQGEYSR [A18H], the protein stability index was determined as 4.15.

LNAELEEKMMQEAEKLKQQGEYSR [A18Q]: the protein stability index worked out at 5.3.

LNAELEEKMMQEAEKLKWQGEYSR [A18W]: the protein stability index was found to be 4.15.

For the variant LNAELEEKMMQEAEKLKMQGEYSR [A18M], the protein stability index worked out at 4.71.

Turning to LNAELEEKMMQEAEKLKIQGEYSR [A18I], the protein stability index was found to be 4.32.

Regarding LNAELEEKMMQEAEKLCAQGEYSR [K17C], the protein stability index is 4.02.

Take LNAELEEKMMQEAEKLRAQGEYSR [K17R]: the protein stability index worked out at 4.41.

Consider LNAELEEKMMQEAEKLQAQGEYSR [K17Q], for which the protein stability index came to 5.22.

On to LNAELEEKMMQEAEKLHAQGEYSR [K17H], for which the protein stability index was determined as 3.87.

On to LNAELEEKMMQEAEKLGAQGEYSR [K17G], for which the protein stability index turned out to be 4.93.

Regarding LNAELEEKMMQEAEKLIAQGEYSR [K17I], the protein stability index was 4.72.

Turning to LNAELEEKMMQEAEKLDAQGEYSR [K17D], the protein stability index is 5.47.

For the variant LNAELEEKMMQEAEKLLAQGEYSR [K17L], the protein stability index is 4.54.

As for LNAELEEKMMQEAEKLYAQGEYSR [K17Y], the protein stability index came to 4.43.

Consider LNAELEEKMMQEAEKLWAQGEYSR [K17W], for which the protein stability index amounted to 3.79.

As to LNAELEEKMMQEAEKLPAQGEYSR [K17P], the protein stability index was 5.65.

With LNAELEEKMMQEAEKLVAQGEYSR [K17V], the protein stability index was found to be 4.4.

Take LNAELEEKMMQEAEKLFAQGEYSR [K17F]: the protein stability index came out at 4.3.

Regarding LNAELEEKMMQEAEKLKAQGEGSR [Y22G], the protein stability index stood at 5.63.

Consider LNAELEEKMMQEAEKLKAQGEFSR [Y22F], for which the protein stability index is 4.46.

Regarding LNAELEEKMMQEAEKLKAQGEESR [Y22E], the protein stability index turned out to be 4.65.

Turning to LNAELEEKMMQEAEKLKAQGEDSR [Y22D], the protein stability index came out at 5.99.

On to LNAELEEKMMQEAEKLKAQGEISR [Y22I], for which the protein stability index was 5.29.

As for LNAELEEKMMQEAEKLKAQGECSR [Y22C], the protein stability index worked out at 5.25.

With LNAELEEKMMQEAEKLKAQGEKSR [Y22K], the protein stability index came to 5.55.

For LNAELEEKMMQEAEVLKAQGEYSR [K15V], the protein stability index is 4.78.

As to LNAELEEKMMQEAEWLKAQGEYSR [K15W], the protein stability index was 4.41.

Consider LNAELEEKMMQEAERLKAQGEYSR [K15R], for which the protein stability index worked out at 4.84.

With LNAELEEKMMQEAEHLKAQGEYSR [K15H], the protein stability index amounted to 5.2.

As to LNAELEEKMMQEAEMLKAQGEYSR [K15M], the protein stability index worked out at 5.82.

As for LNAELEEKMMQEAEGLKAQGEYSR [K15G], the protein stability index stood at 5.26.

Take LNAELEEKMMQEAESLKAQGEYSR [K15S]: the protein stability index stood at 4.38.

For the variant LNAELEEKMMQEAECLKAQGEYSR [K15C], the protein stability index was determined as 5.03.

On to LNAELEEKMMQEAEQLKAQGEYSR [K15Q], for which the protein stability index turned out to be 5.41.

On to LNAELEEKMMQEAEELKAQGEYSR [K15E], for which the protein stability index was determined as 5.06.

For LNAELEEKMMQEAELLKAQGEYSR [K15L], the protein stability index came out at 4.99.

Turning to LNAELEEKMMQEAEPLKAQGEYSR [K15P], the protein stability index was 5.38.

LNAELEEKMMQEAEALKAQGEYSR [K15A]: the protein stability index was found to be 5.41.

As for LNAELEEKMMQEAENLKAQGEYSR [K15N], the protein stability index was 4.71.

With LNAELEEKMMQEAEDLKAQGEYSR [K15D], the protein stability index came out at 5.58.

LNAELEEKMMQEAEYLKAQGEYSR [K15Y]: the protein stability index turned out to be 4.3.

Take LNAELEEKMMQKAEKLKAQGEYSR [E12K]: the protein stability index worked out at 4.67.

Regarding LNAELEEKMMQIAEKLKAQGEYSR [E12I], the protein stability index amounted to 3.28.

Regarding LNAELEEKMMQPAEKLKAQGEYSR [E12P], the protein stability index was determined as 5.4.

On to LNAELEEKMMQCAEKLKAQGEYSR [E12C], for which the protein stability index amounted to 4.38.

Take LNAELEEKMMQAAEKLKAQGEYSR [E12A]: the protein stability index was found to be 4.42.

For the variant LNAELEEKMMQVAEKLKAQGEYSR [E12V], the protein stability index was found to be 4.12.

Regarding LNAELEEKMMQNAEKLKAQGEYSR [E12N], the protein stability index was found to be 4.75.

For LNAELEEKMMQWAEKLKAQGEYSR [E12W], the protein stability index came out at 4.42.

On to LNAELEEKMMQLAEKLKAQGEYSR [E12L], for which the protein stability index was found to be 2.92.

Turning to LNAELEEKMMQFAEKLKAQGEYSR [E12F], the protein stability index turned out to be 3.56.

Consider LNAELEEKMMQRAEKLKAQGEYSR [E12R], for which the protein stability index is 4.26.

On to LNAELEEKMMQTAEKLKAQGEYSR [E12T], for which the protein stability index came out at 4.4.

On to LNAELEEKMMQYAEKLKAQGEYSR [E12Y], for which the protein stability index is 3.47.

On to LNAELEEKMMQEAEKLKAQEEYSR [G20E], for which the protein stability index came to 4.82.

Take LNAELEEKMMQEAEKLKAQKEYSR [G20K]: the protein stability index amounted to 5.22.

LNAELEEKMMQEAEKLKAQSEYSR [G20S]: the protein stability index was 4.91.

LNAELEEKMMQEAEKLKAQIEYSR [G20I]: the protein stability index was 3.68.

In the case of LNAELEEKMMQEAEKLKAQHEYSR [G20H], the protein stability index worked out at 4.35.

Turning to LNAELEEKMMQEAEKLKAQREYSR [G20R], the protein stability index turned out to be 4.85.

As for LNAELEEKMMQEAEKLKAQAEYSR [G20A], the protein stability index was 4.98.

LNAELEEKMMQEAEKLKAQCEYSR [G20C]: the protein stability index was 2.96.

For LNAELEEKMMQEAEKLKAQVEYSR [G20V], the protein stability index is 5.31.

Consider LNAELEEKMMQEAEKLKAQPEYSR [G20P], for which the protein stability index was determined as 5.43.

LNAELEEKMMQEAEKLKAQNEYSR [G20N]: the protein stability index turned out to be 4.99.

As to LNAELEEKMMQEAEKLKAQLEYSR [G20L], the protein stability index was found to be 2.99.

Turning to LNAELEEKMMQEAEKLKAQYEYSR [G20Y], the protein stability index was determined as 4.44.

(Values after the supplement of paper PMC10567573.)
